Data reported in patent US20210332123A1 (SUZHOU KANOVA BIOPHARMACEUTICAL, published 2021).

Tests used:
human IL-17B = target: T1, human IL-17B (human, UniProt Q9UHF5 21-180); test: ELISA (FIG. 4)
T1 sequence (looked up): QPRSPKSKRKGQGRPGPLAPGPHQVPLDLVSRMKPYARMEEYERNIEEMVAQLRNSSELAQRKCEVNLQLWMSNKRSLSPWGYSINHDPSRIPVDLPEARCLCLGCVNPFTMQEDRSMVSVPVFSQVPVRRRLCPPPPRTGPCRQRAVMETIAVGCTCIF
Procedure: (§1) MaxiSorp 96-well plates (NUNC #449824, www.thermofisher.com) were coated with 2 μg/ml human IL-17A (Cell Signaling #89285F, www.cellsignal.com), human IL-17F (Cell Signaling #8906LC, www.cellsignal.com), human IL-17B (Peprotech #200-28, www.peprotech.com), human IL-17C (R&D systems #1234-IL-025/CF, www.rndsystems.com), human IL-17D ((Peprotech #200-27, www.peprotech.com), human IL-17E (R&D systems #1258-IL-025/CF, www.rndsystems.com) in 1×PBS (50 μl/well) respectively. Plates were incubated at 4° C. overnight. Coating solution was removed and plates were washed once with 200 μl/well PBST (1×PBS with 0.05% tween-20). Then 200 μl/well blocking buffer (1×PBS with 0.05% tween-20, 3% BSA) was added and incubated at room temperature for 1 hour. Blocking buffer was removed and plates were washed three times with 200 μl/well PBST (1×PBS with 0.05% tween-20). The anti-IL-25 antibodies (produced in Example 2), were diluted to 10, 3.33, 1.11, 0.37, 0.123, 0.041, 0.0137, 0.0046, 0.0015, 0.00031, 0.000102, 0.000034 μg/ml by 1×PBS and added to the plates (50 μl/well). Plates were incubated at room temperature for 2 hours. Antibodies in the wells were removed and plates were washed three times with 200 μl/well PBST (1×PBS with 0.05% tween-20) each time. Goat anti-human IgG(H&L)-HRP secondary antibody (Jackson Immuno Research #109-035-088, www.jacksonimmuno.com) was diluted 1:5000 in 1×PBS and added to each well (50 μl/well). Plates were incubated at room temperature for 1 hour. Secondary antibody was removed and plates were washed seven times with 200 μl/well PBST (1×PBS with 0.05% tween-20) each time. 50 μl/well TMB (eBioscience #85-00-4201-56, www.ebioscience.com) was added and plates were incubated at room temperature for several minutes. Then 50 μl/well 2N H₂SO₄ was added to stop the reaction. Plates were read at 450 nm.

human IL-17A = target: T2, human IL-17A (human, UniProt Q16552 24-155, limits assumed); test: ELISA (FIG. 4)
T2 sequence (looked up): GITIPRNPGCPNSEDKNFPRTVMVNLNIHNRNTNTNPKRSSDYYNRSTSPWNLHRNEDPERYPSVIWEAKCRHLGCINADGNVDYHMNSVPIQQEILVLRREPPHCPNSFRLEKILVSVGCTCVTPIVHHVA
Procedure: as §1

binding result (human IL-17B): no binding | binding result (human IL-17A): no binding
B1: murine anti-IL-25 monoclonal antibody 18H3 (antibody, V domains shown)
VH: QVTLKESGPGILQPSQTLSLTCSFSGFSLSTSGMGLGWIRQPSGKGLEWLAHIWWDDVKHYKPALKSRLTISKDISSSQVFLTIASVDTADTATYYCARMGQLHYYGYDYAMDYWGQGTSVTVSS
VL: QIVLTQSPAIMSASPGEKVTISCSASSSVSYMYWYQQKPGSSPKPWIYRTSNLASGVPARFSGSGSGTSYSLTISSMEAEDAATYYCQLYHSYPPTWTFGGGTKLEIK
notes: also called parental antibody; parental murine mAb
